# T1: HPV18E7蛋白 (in HeLa cells and HPV18-positive cervical adenocarcinoma tissue) (HPV18, UniProt P06788 1-105)
# T1 construct: whole, on cells; Native intracellular protein in cells, tissue sections or total lysate; also called HeLa细胞总蛋白中的HPV18E7蛋白
# T1 sequence: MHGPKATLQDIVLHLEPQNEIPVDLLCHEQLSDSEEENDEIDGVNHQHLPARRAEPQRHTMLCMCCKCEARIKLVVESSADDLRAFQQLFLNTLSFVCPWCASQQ
# Target: T1, HPV18E7蛋白 (in HeLa cells and …)
# Experiment: immunocytochemistry on HeLa cells (HPV18 positive), DAB
binder,measurement,value
"抗HPV16E7蛋白单抗69E2 (antibody, mouse IgG2a, kappa, V domains shown, Mouse IgG2a from hybridoma, purified from ascites; also called HPV16E7-69E2; CCTCC NO:C2019181) VH: QVQLQQSGPEVVRPGVSVKISCKGSGYTFTDYAMHWVKQSHAKSLEWIGVISTYNGNTNYNQKFKGKATVTVDKSSSTAYMELARLTSEDSAIYYCARRGFGNSWFAYWGQGTLVTVSA VL: ENVLTQSPAIMSASPGGKVTMTCSASSGVSYMHWYQQKSSTSPKLWIYDTSNLASGVPGRFSGSGSGNSYSLTISSMEAEDVATYYCFQGSGYPFTFGSGTKLEIRR",binding result,no binding (tested: 7.8125ng/孔到1μg/孔)

# — CN111410689A (UNIV CHONGQING TECHNOLOGY, dated 2020)
